Patent WO2008021263A2

Assays:
[1] = biological target: SDF-1α (stromal cell-derived factor-1 alpha) (Felis catus (Cat) (Felis silvestris catus)) (UniProt O62657); experiment: SPR, calculated as (RU SDF-1α/RU Fab)*(M.Wt Fab/M.Wt SDF-1α), Fab on anti-CH1 chip (Figure 5: 1D3)
[2] = biological target: SDF-1α (stromal cell-derived factor-1 alpha) (Felis catus (Cat) (Felis silvestris catus)) (UniProt O62657); experiment: SPR, Fab (about 1250 RU) on anti-CH1 chip, saturating SDF-1α (Figure 5: 1D3)

Sequence of SDF-1α (stromal cell-derived factor-1 alpha) (Felis catus (Cat) (Felis silvestris catus)) (O62657 22-89 limits assumed): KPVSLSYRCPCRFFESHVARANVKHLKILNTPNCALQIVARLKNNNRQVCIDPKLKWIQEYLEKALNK

stoichiometry (molecules of SDF-1α bound per Fab molecule) (molecules of SDF-1α per Fab molecule) [1]: 1.75 | RUSDF-1α (response units of SDF-1α bound) [2]: 350 RU
B1: 1D3 Fab (Fab, V domains shown)
VH: EVQLVQSGAEVKKPGASVKVSCKVSGYTLTKLSVHWVRQAPGKGLEWMGSFDPEDGETIYSQRFQGRVTMTEDTSTDTAYMELTSLRSEDTAVYYCATEGQWLVAYYGMDVWGQGTTVTVSS
VL: EIVLTQSPSSLSASVGDRVTITCRASQGISSALAWYQQKPGKAPKLLIYDASSLESGVPSRFSGSGSGTDFTLTISSLQPEDFATYYCQQFNSYPLTFGGGTKVEIK
